# Measurements: patent US20090162366A1
# Columns and labels:
# NM11 (influenza A virus) = assay: ELISA on peptide, Ab 10 µg/ml
# NM12 (influenza A virus) = assay: ELISA on peptide, Ab 10 µg/ml
# CM14 (influenza A virus) = assay: ELISA on peptide, Ab 10 µg/ml
# CM12 (influenza A virus) = assay: ELISA on peptide, Ab 10 µg/ml
# NM14 (influenza A virus) = assay: ELISA on peptide, Ab 10 µg/ml
# NM13 (influenza A virus) = assay: ELISA on peptide, Ab 10 µg/ml
# CM13 (influenza A virus) = assay: ELISA on peptide, Ab 10 µg/ml
# CM16 (influenza A virus) = assay: ELISA on peptide, Ab 10 µg/ml
# CM17 (influenza A virus) = assay: ELISA on peptide, Ab 10 µg/ml
# CM15 (influenza A virus) = assay: ELISA on peptide, Ab 10 µg/ml
# M12 (influenza A virus) = assay: ELISA on peptide, Ab 10 µg/ml
# [1] = target: T1, M2KGENS peptide conjugated with BSA (influenza A virus, A/Turkey/VA/158512/02 (H7N2)); assay: peptide-BSA ELISA; legend: EC50 > 10^-8M: -; settings: remark: other sources report otherwise
# [2] = target: T2, M2KTGEKS peptide conjugated with BSA (influenza A virus, A/Quail/Arkansas/16309-7/94 (H7N3NSA)); assay: peptide-BSA ELISA; legend: EC50 > 10^-8M: -; settings: remark: other sources report otherwise
# [3] = target: T3, M2GHTGKS peptide conjugated with BSA (influenza A virus, A/chicken/HongKong/SF1/03 (H9N2)); assay: peptide-BSA ELISA; legend: EC50 > 10^-8M: -; settings: remark: other sources report otherwise
# [4] = target: T4, M2HTGEKS peptide conjugated with BSA (influenza A virus, A/chicken/California/1002a/00 (H6N2)); assay: peptide-BSA ELISA; legend: EC50 > 10^-8M: -; settings: remark: other sources report otherwise
# [5] = target: T5, M2PHTGS peptide conjugated with BSA (influenza A virus, A/chicken/HongKong/YU427/03 (H9N2)); assay: peptide-BSA ELISA; legend: EC50 > 10^-8M: -; settings: remark: other sources report otherwise
# [6] = target: T6, M2LTGS peptide conjugated with BSA (influenza A virus, A/Hong Kong/156/97 (H5N1)); assay: peptide-BSA ELISA; legend: EC50 > 10^-8M: -; settings: remark: other sources report otherwise
# [7] = target: T7, M2LTKGS peptide conjugated with BSA (influenza A virus, A/Hong Kong/542/97 (H5N1)); assay: peptide-BSA ELISA; legend: EC50 > 10^-8M: -; settings: remark: other sources report otherwise
# [8] = target: T1, M2KGENS peptide conjugated with BSA …; assay: peptide-BSA ELISA; settings: remark: other sources report otherwise
# [9] = target: T2, M2KTGEKS peptide conjugated with BSA …; assay: peptide-BSA ELISA; settings: remark: other sources report otherwise
# [10] = target: T3, M2GHTGKS peptide conjugated with BSA …; assay: peptide-BSA ELISA; settings: remark: other sources report otherwise
# [11] = target: T4, M2HTGEKS peptide conjugated with BSA …; assay: peptide-BSA ELISA; settings: remark: other sources report otherwise
# [12] = target: T5, M2PHTGS peptide conjugated with BSA …; assay: peptide-BSA ELISA; settings: remark: other sources report otherwise
# [13] = target: T6, M2LTGS peptide conjugated with BSA …; assay: peptide-BSA ELISA; settings: remark: other sources report otherwise
# [14] = target: T7, M2LTKGS peptide conjugated with BSA …; assay: peptide-BSA ELISA; settings: remark: other sources report otherwise
# [15] = target: M2EG peptide conjugated with BSA (influenza A virus, A/New York/687/1995 (H3N2)); assay: peptide-BSA ELISA (++ EC50<10^-9M; + 10^-9M<EC50<10^-8M); settings: remark: other sources report otherwise
# [16] = target: M2DLTGS peptide conjugated with BSA (influenza A virus, A/Hong Kong/485/97 (H5N1)); assay: as above; settings: remark: other sources report otherwise
# [17] = target: M2TES peptide conjugated with BSA (influenza A virus, A/Viet Nam/1203/2004 (H5N1)); assay: as above; settings: remark: other sources report otherwise
# [18] = target: M2SG peptide conjugated with BSA (influenza A virus, A/swine/Tennessee/25/77 (H1N1)); assay: as above; settings: remark: other sources report otherwise
# [19] = target: M2HTGEKS (influenza A virus, A/chicken/California/1002a/00 (H6N2)); settings: remark: other sources report otherwise
# [20] = target: M2GHTGKS (influenza A virus, A/chicken/HongKong/SF1/03 (H9N2)); settings: remark: other sources report otherwise
# [21] = target: M2PHTGS (influenza A virus, A/chicken/HongKong/YU427/03 (H9N2)); settings: remark: other sources report otherwise
# [22] = target: M2LTGS (influenza A virus, A/Hong Kong/156/97 (H5N1)); settings: remark: other sources report otherwise
# [23] = target: M2LTKGS (influenza A virus, A/Hong Kong/542/97 (H5N1)); settings: remark: other sources report otherwise
# [24] = target: M2KTGEKS (influenza A virus, A/Quail/Arkansas/16309-7/94 (H7N3NSA)); settings: remark: other sources report otherwise
# [25] = target: M2KGENS (influenza A virus, A/Turkey/VA/158512/02 (H7N2)); settings: remark: other sources report otherwise
# [26] = target: M2 peptide (influenza A virus, A/Hong Kong/1/68 (H3N2)); assay: ELISA on peptide, Ab 10 µg/ml
# NM16 (influenza A virus) = assay: ELISA on peptide, Ab 10 µg/ml
# NM15 (influenza A virus) = assay: ELISA on peptide, Ab 10 µg/ml
# NM17 (influenza A virus) = assay: ELISA on peptide, Ab 10 µg/ml
# [27] = target: T1, M2KGENS peptide conjugated with BSA …; assay: peptide-BSA ELISA (++ EC50<10^-9M; + 10^-9M<EC50<10^-8M); settings: remark: other sources report otherwise
# [28] = target: T3, M2GHTGKS peptide conjugated with BSA …; assay: as above; settings: remark: other sources report otherwise
# [29] = target: M2TGEK-BSA conjugate (influenza A virus, A/Netherlands/33/03 (H7N7)); assay: as above; settings: remark: other sources report otherwise
# [30] = target: M2LTGEKS-BSA conjugate (influenza A virus, A/Hong Kong/1074/99 (H9N2)); assay: as above; settings: remark: other sources report otherwise
# [31] = target: T5, M2PHTGS peptide conjugated with BSA …; assay: as above; settings: remark: other sources report otherwise
# [32] = target: M2-BSA conjugate (influenza A virus, A/Hong Kong/1/68 (H3N2)); assay: as above
binder,measurement,setting,value
"C40G1 (antibody, V domains shown) VH: QLQLQESGPGLVKPSETLSLTCTVSGGSISSSFYYCGWIRQPPGKGLEWIGSIYYRGSTYYNPSLKSRVTISVDTSKNQFSLKLSSVTAADTAVYYCARRVTMVRGVKGDYFDYWGQGTLVTVSS VL: DIQMTQSPSSLSASVGDRVTITCRASQGISSWLAWYQQKPEKVPKSLIYAASSLQSGVPSRFSGSGSGTDFTLTISSLQPEDFATYYCQQYNYYPLTFGGGTKVEIKR",ELISA(OD450),NM11 (influenza A virus),0.31 OD450
same,ELISA(OD450),NM12 (influenza A virus),0.12 OD450
same,ELISA(OD450),CM14 (influenza A virus),0.1 OD450
same,ELISA(OD450),CM12 (influenza A virus),0.1 OD450
same,ELISA(OD450),NM14 (influenza A virus),2.49 OD450
same,ELISA(OD450),NM13 (influenza A virus),2.41 OD450
same,ELISA(OD450),CM13 (influenza A virus),0.11 OD450
same,ELISA(OD450),CM16 (influenza A virus),0.76 OD450
same,ELISA(OD450),CM17 (influenza A virus),2.78 OD450
same,ELISA(OD450),CM15 (influenza A virus),0.11 OD450
same,ELISA(OD450),M12 (influenza A virus),2.71 OD450
same,EC50,[1],> 10 nM
same,EC50,[2],> 10 nM
same,EC50,[3],> 10 nM
same,EC50,[4],> 10 nM
same,EC50,[5],> 10 nM
same,EC50,[6],> 10 nM
same,EC50,[7],> 10 nM
same,EC50,[8],> 10 nM
same,EC50,[9],> 10 nM
same,EC50,[10],> 10 nM
same,EC50,[11],> 10 nM
same,EC50,[12],> 10 nM
same,EC50,[13],> 10 nM
same,EC50,[14],> 10 nM
same,EC50,[15],< 1 nM
same,EC50,[16],1 to 10 nM
same,EC50,[17],< 1 nM
same,EC50,[18],< 1 nM
same,% of O.D. on M2 (SEQ ID NO:1),[19],< 10%
same,% of O.D. on M2 (SEQ ID NO:1),[20],< 10%
same,% of O.D. on M2 (SEQ ID NO:1),[21],< 10%
same,% of O.D. on M2 (SEQ ID NO:1),[22],< 10%
same,% of O.D. on M2 (SEQ ID NO:1),[23],< 10%
same,% of O.D. on M2 (SEQ ID NO:1),[24],< 10%
same,% of O.D. on M2 (SEQ ID NO:1),[25],< 10%
"L66 (antibody, V domains shown) VH: EVQLVESGGGVVRPGGSLRLSCAASGFTFDDYGMSWVRQAPGKGLEWVSGINWNGGSTGYADSVKGRFTISRDNAKNSLYLQMNSLRAEDTALYYCARDRVTMVRGVIMDYYGMDVWGQGTTVTVSS VL: QTVVTQEPSLTVSPRGTVTLTCSSSTGAVTSGYYPGWFQLKPGQAPMSLIYSARKKHSWTPARFSGSLLGGKAALTLSGVQPEDEAEYYCLLYYGGAYVFGTGTKVTVLG",ELISA(OD450),NM11 (influenza A virus),0.09 OD450
same,ELISA(OD450),NM12 (influenza A virus),0.12 OD450
same,ELISA(OD450),CM14 (influenza A virus),0.08 OD450
same,ELISA(OD450),CM12 (influenza A virus),0.08 OD450
same,ELISA(OD450),[26],0.51 OD450
same,ELISA(OD450),NM16 (influenza A virus),1.04 OD450
same,ELISA(OD450),NM14 (influenza A virus),0.22 OD450
same,ELISA(OD450),NM15 (influenza A virus),0.2 OD450
same,ELISA(OD450),NM17 (influenza A virus),0.99 OD450
same,ELISA(OD450),NM13 (influenza A virus),0.13 OD450
same,ELISA(OD450),CM13 (influenza A virus),0.08 OD450
same,ELISA(OD450),CM16 (influenza A virus),0.09 OD450
same,ELISA(OD450),CM17 (influenza A virus),0.12 OD450
same,ELISA(OD450),CM15 (influenza A virus),0.09 OD450
same,EC50,[27],< 1 nM
same,EC50,[15],1 to 10 nM
same,EC50,[28],< 1 nM
same,EC50,[29],< 1 nM
same,EC50,[30],< 1 nM
same,EC50,[17],< 1 nM
same,EC50,[31],< 1 nM
same,EC50,[32],< 1 nM
